We go through one protein from PMC4546571 (Chemistry & biology, 2015).

This data set concerns the molecule itself. The data set can be described thus: seeded fibril assembly followed by ThT fluorescence.

For the protein GIHKQKEKSRLQGGVLVNEILNHMKRATQIPSYKKLIMY (peptide, UniProt P15309 248-286, looked up) [PAP248-286], the binding result is “binds”.
